This note sets out measurements from publication PMC2693429.

In general, Kd refers to the constant that tells how readily two partners part at equilibrium. The koff is the rate constant with which the complex falls apart. The kon is the rate constant with which the complex forms. The stoichiometry N is a count of units in the complex or per binding partner.

The target of assay [1] is Recombinant Very Low Density Lipoprotein Receptor (VLDLR) ligand binding region. The experiment in a line: SPR; VLDLR immobilised on a CM5 BIAcore chip (~2,000 response units, amine coupling); analytes in 10 mM Hepes pH 7.4, 150 mM NaCl, 1 mM CaCl2, 0.005% Tween-20 at 20 μL/min; regeneration 100 mM H3PO4; blank cell as reference; 1:1 binding model. (In general: SPR reads the build-up and loss of mass on a sensor chip optically.)

Assay [2] concerns the target 6 × His-tagged PAI-2 lacking the intrahelical loop between C and D alpha-helices (PAI-2 ΔCD-loop), from pQE9 (human) (UniProt P05120). The experiment in a line: native MS; positive ion ESI-MS (Q-TOF); 10 μM protein in 10 mM ammonium acetate pH 6.8 with 0.1% formic acid; monomeric and dimeric species seen.

Take “uPA:PAI-2 wild-type complex (from UniProt P05120 1-415)”: in assay [1], the equilibrium dissociation constant (Kd) amounted to 4.81 nM, the koff amounted to 0.00144 s⁻¹ and the on-rate (kon) turned out to be 375000 M⁻¹ s⁻¹.
“uPA:PAI-2 ΔCD-loop complex (from UniProt P05120 1-415)”: in assay [1], the Kd amounted to 4.34 nM, the dissociation rate constant (koff) stood at 0.00136 s⁻¹ and the on-rate constant (kon) amounted to 416000 M⁻¹ s⁻¹.
Turning to “6 × His-tagged PAI-2 lacking the intrahelical loop between C and D alpha-helices (PAI-2 ΔCD-loop), from pQE9 (from UniProt P05120 1-415) (natural protein)”, the stoichiometry N in assay [2] was found to be 2.
